T1: rhesus monkey iRhom2 (Macaca mulatta, UniProt F6Y4X6)
T1 construct: pMSCV-rhesus-iR2-FL-WT-T7 encoding rhesus monkey iRhom2 full length wild type; expressed in transfected cells; host or cells: immortalized iRhom1/2-/- DKO mouse embryonic fibroblasts, pMSCV retroviral infection
T1 sequence (F6Y4X6 1-827): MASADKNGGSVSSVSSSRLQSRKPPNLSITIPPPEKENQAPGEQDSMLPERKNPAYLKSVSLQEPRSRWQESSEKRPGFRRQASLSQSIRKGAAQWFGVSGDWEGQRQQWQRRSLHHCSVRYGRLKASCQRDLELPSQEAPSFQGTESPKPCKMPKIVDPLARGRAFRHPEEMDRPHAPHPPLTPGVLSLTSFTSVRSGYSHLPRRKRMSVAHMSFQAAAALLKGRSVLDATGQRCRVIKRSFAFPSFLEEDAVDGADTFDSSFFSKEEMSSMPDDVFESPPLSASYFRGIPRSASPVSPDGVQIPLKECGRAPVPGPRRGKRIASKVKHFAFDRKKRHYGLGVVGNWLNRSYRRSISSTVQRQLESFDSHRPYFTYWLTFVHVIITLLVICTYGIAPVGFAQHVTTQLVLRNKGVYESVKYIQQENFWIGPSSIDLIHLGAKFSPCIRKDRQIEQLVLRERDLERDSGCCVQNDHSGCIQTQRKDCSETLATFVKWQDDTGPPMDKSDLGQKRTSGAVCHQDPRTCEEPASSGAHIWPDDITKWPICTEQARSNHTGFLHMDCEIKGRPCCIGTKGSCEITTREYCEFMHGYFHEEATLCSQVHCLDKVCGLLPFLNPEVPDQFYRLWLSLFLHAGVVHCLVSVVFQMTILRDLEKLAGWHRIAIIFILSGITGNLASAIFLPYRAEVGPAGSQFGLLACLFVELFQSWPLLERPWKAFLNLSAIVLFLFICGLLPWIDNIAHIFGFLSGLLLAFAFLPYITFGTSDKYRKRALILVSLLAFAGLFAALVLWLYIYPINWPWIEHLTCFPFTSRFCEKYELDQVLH


Key:
Conditions in all cases: antibody at 3 μg/ml
rhesus monkey iRhom2 = target: T1, rhesus monkey iRhom2; test: FACS cross-reactivity on MEF-DKO-Rhesus-iR2-FL-WT-T7 cells; format: binding
Description: (§1) Next, iRhom1/2−/− DKO MEFs stably expressing a tagged form of rhesus monkey, cynomolgus monkey, dog or rabbit iRhom2 were generated in order to determine cross-reactivity of the antibodies of the invention with the respective orthologue of iRhom2. iRhom1/2−/− DKO MEFs stably expressing a tagged form of rhesus monkey, cynomolgus monkey, dog or rabbit iRhom1 were generated to confirm specificity for iRhom2 versus iRhom1 of these species.
(§2) In brief, on day 1, Phoenix-ECO cells (American Type Culture Collection, USA) were seeded on 6-well tissue culture plates (Greiner, Germany) in standard growth medium at 8×10^5 cells per well and kept overnight at 37° C., 5% CO2. On day 2, the medium was replaced by fresh medium supplemented with chloroquine (Sigma-Aldrich, USA) at a final concentration of 25 μM. Applying the calcium phosphate method, cells were transfected with 2 μg/ml of pMSCV (Clontech, USA) empty vector, pMSCV-rhesus-iR2-FL-WT-T7 encoding rhesus monkey iRhom2 full length wild type C-terminally tagged with 3 consecutive copies of the T7 epitope, pMSCV-cyno-iR2-FL-WT-T7 encoding cynomolgus monkey iRhom2 full length wild type C-terminally tagged with 3 consecutive copies of the T7 epitope, pMSCV-dog-iR2-FL-WT-T7 encoding dog iRhom2 full length wild type C-terminally tagged with 3 consecutive copies of the T7 epitope or pMSCV-rabbit-iR2-FL-WT-T7 encoding rabbit iRhom2 full length wild type C-terminally tagged with 3 consecutive copies of the T7 epitope, respectively, and were kept at 37° C., 5% CO2. After 7 hours, the transfections were stopped by replacing cell supernatants with standard growth medium lacking chloroquine, and cells were incubated at 37° C., 5% CO2 to allow virus production overnight. In parallel, immortalized iRhom1/2−/− DKO MEFs as target cells for retroviral infection were seeded on 6-well tissue culture plates (Greiner, Germany) in standard growth medium at 1×10^5 cells per well and were also kept overnight at 37° C., 5% CO2. On day 3, the supernatants of Phoenix-ECO cells releasing pMSCV, pMSCV-rhesus-iR2-FL-WT-T7, pMSCV-cyno-iR2-FL-WT-T7, pMSCV-dog-iR2-FL-WT-T7 or pMSCV-rabbit-iR2-FL-WT-T7 ecotrophic virus, respectively were collected, filtered with 0.45 μm CA filters, and supplemented with 4 μg/ml of polybrene (Sigma-Aldrich, USA). Upon removal of medium from the immortalized iRhom1/2−/− DKO MEFs, the virus containing supernatants were added to the target cells for 4 hours at 37° C., 5% CO2 for first infection. Simultaneously, Phoenix-ECO cells were re-incubated with fresh medium, which, after another 4 hours, was filtered and used for the second infection of the respective target cell populations, again in the presence of 4 μg/ml of polybrene. Likewise, a third, but overnight infection cycle was performed. On day 4, virus containing cell supernatants were replaced by fresh standard growth medium. From day 5 onwards, cells were grown in the presence of 2 mg/ml of geneticin (G418, Thermo Fisher Scientific, USA) for the selection of immortalized MEF-DKO-EV control cells stably infected with pMSCV empty vector, pMSCV-rhesus-iR2-FL-WT-T7 cells stably expressing rhesus monkey iRhom2 full length wild type C-terminally tagged with 3 consecutive copies of the T7 epitope, pMSCV-cyno-iR2-FL-WT-T7 cells stably expressing cynomolgus monkey iRhom2 full length wild type C-terminally tagged with 3 consecutive copies of the T7 epitope, pMSCV-dog-iR2-FL-WT-T7 cells stably expressing dog iRhom2 full length wild type C-terminally tagged with 3 consecutive copies of the T7 epitope or pMSCV-rabbit-iR2-FL-WT-T7 cells stably expressing rabbit iRhom2 full length wild type C-terminally tagged with 3 consecutive copies of the T7 epitope, respectively. Upon propagation, cells were stocked for future usage. In parallel, iRhom1/2−/− DKO MEFs stably expressing a tagged form of rhesus monkey, cynomolgus monkey, dog or rabbit iRhom1 were generated in an analogous manner. […]

cynomolgus monkey iRhom2 = test: FACS cross-reactivity on MEF-DKO-Cyno-iR2-FL-WT-T7 cells; format: binding
Description: as §1, §2

cynomolgus monkey iRhom1 = test: FACS binding on MEF-DKO-Cyno-iR1-FL-WT-T7 cells
Description: as §1, §2

dog iRhom1 = test: FACS binding on MEF-DKO-Dog-iR1-FL-WT-T7 cells
Description: as §1, §2

rabbit iRhom2 = test: FACS cross-reactivity on MEF-DKO-Rabbit-iR2-FL-WT-T7 cells; format: binding
Description: as §1, §2

Row | Molecule | binding to rhesus monkey iRhom2 on MEF-DKO-Rhesus-iR2-FL-WT-T7 cells (rhesus monkey iRhom2) | binding to cynomolgus monkey iRhom2 on MEF-DKO-Cyno-iR2-FL-WT-T7 cells (cynomolgus monkey iRhom2) | binding to cynomolgus monkey iRhom1 on MEF-DKO-Cyno-iR1-FL-WT-T7 cells (cynomolgus monkey iRhom1) | binding to dog iRhom1 on MEF-DKO-Dog-iR1-FL-WT-T7 cells (dog iRhom1) | binding to rabbit iRhom2 on MEF-DKO-Rabbit-iR2-FL-WT-T7 cells (rabbit iRhom2)
1 | 16-B-03: humanized antibody binding human iRhom2; HCVD SEQ ID NO 1, LCVD SEQ ID NO 5 (antibody, V domains shown, antibody sequences) VH: QVTLRESGPALVKPTQTLTLTCTFSGFSLSTFALGVGWIRQPPGKALEWLAHIWWDDDKYYNPALKSRLTISKDTSKNQVVLTITNMDPVDTATYYCARITTYYYGMDYWGQGTLVTVSS VL: EIVMTQSPDFQSVTPKEKVTITCRASQSIGNHLHWYQQKPDASPKLLIKYASQSISGVPSRFSGSGSGTDFTLTINSLEAEDAATYFCQQSYQWPLTFGQGTKLEIK | Strong binding | Strong binding | no significant binding | no significant binding | Strong binding
2 | 16-B-07: humanized antibody binding human iRhom2; HCVD SEQ ID NO 17, LCVD SEQ ID NO 21 (antibody, V domains shown, antibody sequences) VH: QVTLRESGPALVKPTQTLTLTCTFSGFSLSTFALGVGWIRQPPGKALEWLAHIWWDEDKYYNPALKSRLTISKDTSKNQVVLTITNMDPVDTATYYCARITTYYYGMDYWGQGTLVTVSS VL: EIVMTQSPDFQSVTPKEKVTITCRASQSIGNHLHWYQQKPDASPKLLIKYASQSISGVPSRFSGSGSGTDFTLTINSLEAEDAATYFCQQSYQWPLTFGQGTKLEIK | recognize rhesus monkey iRhom2 | recognize cynomolgus monkey iRhom2 | do not recognize cynomolgus monkey iRhom1 | do not recognize dog iRhom1 | recognize rabbit iRhom2
3 | 16-B-05: humanized antibody binding human iRhom2; HCVD SEQ ID NO 9, LCVD SEQ ID NO 13 (antibody, V domains shown, antibody sequences) VH: QVTLRESGPALVKPTQTLTLTCTFSGFSLSTFALGVGWIRQPPGKALEWLAHIWWDEDKYYNPALKSRLTISKDTSKNQVVLTITNMDPVDTATYYCARITTYYYGMDYWGQGTLVTVSS VL: EIVMTQSPDFQSVTPKEKVTITCRASQSIGNHLHWYQQKPDASPKLLIKYASQSISGVPSRFSGSGSGTDFTLTINSLEAEDAATYFCQQSYNWPLTFGQGTKLEIK | recognize rhesus monkey iRhom2 | recognize cynomolgus monkey iRhom2 | do not recognize cynomolgus monkey iRhom1 | do not recognize dog iRhom1 | recognize rabbit iRhom2

Now from value to molecule, other results behind:

Row | binding to rhesus monkey iRhom2 on MEF-DKO-Rhesus-iR2-FL-WT-T7 cells (rhesus monkey iRhom2) | Molecule | binding to cynomolgus monkey iRhom2 on MEF-DKO-Cyno-iR2-FL-WT-T7 cells (cynomolgus monkey iRhom2) | binding to cynomolgus monkey iRhom1 on MEF-DKO-Cyno-iR1-FL-WT-T7 cells (cynomolgus monkey iRhom1) | binding to dog iRhom1 on MEF-DKO-Dog-iR1-FL-WT-T7 cells (dog iRhom1) | binding to rabbit iRhom2 on MEF-DKO-Rabbit-iR2-FL-WT-T7 cells (rabbit iRhom2)
4 | recognize rhesus monkey iRhom2 | 23-B-04: humanized antibody binding human iRhom2; HCVD SEQ ID NO 25, LCVD SEQ ID NO 29 (antibody, V domains shown, antibody sequences) VH: QVTLRESGPALVKPTQTLTLTCTFSGFSLSTFGMGVGWIRQPPGKALEWLAHIWWDDEKYYNSALKSRLTISKDTSKNQVVLTITNMDPVDTATYYCARISNYGSNYWYFNVWGQGTLVTVSS VL: AIQLTQSPSSLSASVGDRVTITCRASSSVSYMYWYQQKPGKAPKVLIYDTSNLASGVPSRFSGSGSGTDYTLTISSLQPEDFATYYCQQWNAYPLTFGQGTKLEIK | recognize cynomolgus monkey iRhom2 | do not recognize cynomolgus monkey iRhom1 | do not recognize dog iRhom1 | recognize rabbit iRhom2
5 | recognize rhesus monkey iRhom2 | 42-B-02: humanized antibody binding human iRhom2; HCVD SEQ ID NO 33, LCVD SEQ ID NO 37 (antibody, V domains shown, antibody sequences) VH: QVTLRESGPALVKPTQTLTLTCTFSGFSLSTFGRGVGWIRQPPGKALEWLAHIWWDDEKYYNSALKSRLTISKDTSKNQVVLTITNMDPVDTATYYCARIQNYGSNYWYFDVWGQGTLVTVSS VL: AIQLTQSPSSLSASVGDRVTITCRASSRISYMFWYQQKPGKAPKVLIYDTSNLASGVPSRFSGSGSGTDYTLTISSLQPEDFATYYCQQWNSYPLTFGQGTKLEIK | recognize cynomolgus monkey iRhom2 | do not recognize cynomolgus monkey iRhom1 | do not recognize dog iRhom1 | recognize rabbit iRhom2
6 | recognize rhesus monkey iRhom2 | 42-B-04: humanized antibody binding human iRhom2; HCVD SEQ ID NO 41, LCVD SEQ ID NO 45 (antibody, V domains shown, antibody sequences) VH: QVTLRESGPALVKPTQTLTLTCTFSGFSLSTFGRGVGWIRQPPGKALEWLAHIWWDDEKYYNSALKSRLTISKDTSKNQVVLTITNMDPVDTATYYCARIQNYGSNYWYFDVWGQGTLVTVSS VL: AIQLTQSPSSLSASVGDRVTITCRASSRISYMFWYQQKPGKAPKVLIYDTSNLASGVPSRFSGSGSGTDYTLTISSLQPEDFATYYCQQWNAYPLTFGQGTKLEIK | recognize cynomolgus monkey iRhom2 | do not recognize cynomolgus monkey iRhom1 | do not recognize dog iRhom1 | recognize rabbit iRhom2
